The values that follow come from article PMC2719355 (The Journal of Biological Chemistry, 2009).

This data set deals with the molecule itself. In words: mass spectrometry.

B1: recombinant full-length human butyrylcholinesterase, usual form (rBChE-U) (enzyme)
chain: EDDIIIATKNGKVRGMNLTVFGGTVTAFLGIPYAQPPLGRLRFKKPQSLTKWSDIWNATKYANSCCQNIDQSFPGFHGSEMWNPNTDLSEDCLYLNVWIPAPKPKNATVLIWIYGGGFQTGTSSLHVYDGKFLARVERVIVVSMNYRVGALGFLALPGNPEAPGNMGLFDQQLALQWVQKNIAAFGGNPKSVTLFGESAGAASVSLHLLSPGSHSLFTRAILQSGSFNAPWAVTSLYEARNRTLNLAKLTGCSRENETEIIKCLRNKDPQEILLNEAFVVPYGTPLSVNFGPTVDGDFLTDMPDILLELGQFKKTQILVGVNKDEGTAFLVYGAPGFSKDNNSIITRKEFQEGLKIFFPGVSEFGKESILFHYTDWVDDQRPENYREALGDVVGDYNFICPALEFTKKFSEWGNNAFFYYFEHRSSKLPWPEWMGVMHGYEIEFVFGLPLERRDNYTKAEEILSRSIVKRWANFAKYGNPNETQNNSTSWPVFKSTEQKYLTLNTESTRIMTKLRAQQCRFWTSFFPKVLEMTGNIDEAEWEWKAGFHRWNNYMMDWKNQFNDYTSKKESCVGL
As for B1, the “stoichiometry N” value was 2.
